Here are results for 1 molecule from patent US20250026833A1 (WUXI BIOLOGICS IRELAND, published 2025).

This assay deals with T1, hPD-L1-ECD.mFc, W315-hPro1.ECD.mFc (in house) (human, UniProt Q9NZQ7 19-238).
T1 construct: extracellular domain; also called Human PD-L1, mFc tag; not shown: C-terminal mouse Fc
Kind of assay: dual binding (bridging) ELISA: plate coated with hVEGF.his, titrated antibody, then hPD-L1-ECD.mFc at 1 ug/ml, HRP goat anti-mouse IgG.

T1 sequence (Q9NZQ7 19-238): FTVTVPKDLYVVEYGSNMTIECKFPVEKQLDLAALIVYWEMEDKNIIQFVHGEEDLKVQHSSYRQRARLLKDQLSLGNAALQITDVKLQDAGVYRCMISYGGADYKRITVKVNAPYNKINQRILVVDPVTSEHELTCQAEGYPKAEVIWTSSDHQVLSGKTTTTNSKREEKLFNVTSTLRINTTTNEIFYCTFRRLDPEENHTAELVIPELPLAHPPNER

B1: Avastin (bevacizumab) (antibody, human IgG1, V domains shown)
VH: EVQLVESGGGLVQPGGSLRLSCAASGYTFTNYGMNWVRQAPGKGLEWVGWINTYTGEPTYAADFKRRFTFSLDTSKSTAYLQMNSLRAEDTAVYYCAKYPHYYGSSHWYFDVWGQGTLVTVSS
VL: DIQMTQSPSSLSASVGDRVTITCSASQDISNYLNWYQQKPGKAPKVLIYFTSSLHSGVPSRFSGSGSGTDFTLTISSLQPEDFATYYCQQYSTVPWTFGQGTKVEIK
notes: also called parental anti-VEGF antibody
For B1, the binding result is “no binding (tested: 100 nM)”.
